Reference: the supplement of paper PMC9170038

Test system: MS2 coat protein
Experiment: apparent KD of MS2 coat protein; designed switch direction (-1 OFF switch, 1 ON switch): -1; higher = weaker reporter binding
In short: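 Designed RNA switches sharing common flanks were transcribed on Illumina chips by stalled E. coli RNA polymerase. They were titrated with SNAP-549-labelled MS2 coat protein, from 0.7 or 1.5 nM doubling to 3 µM, in Tris-HCl pH 7.5 buffer with KCl, MgCl2, BSA, DTT, tRNA and Tween-20. Titrations ran without input, with 200 uM small-molecule ligand, or with an oligonucleotide input. The apparent KD of each design is the median over its clusters, after curve-fitting of normalised cluster fluorescence.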

[1] = input ligand: microRNA oligo, concentration not stated
[2] = Eterna round: R95, input ligand: microRNA oligo, concentration not stated
[3] = Eterna round: R95, input ligand: FMN 200 uM
[4] = Eterna round: R95, input ligand: none

| Sequence | apparent KD of MS2 coat protein (input ligand: FMN 200 uM) [nM] | apparent KD of MS2 coat protein [1] [nM] | apparent KD of MS2 coat protein (input ligand: none) [nM] | apparent KD of MS2 coat protein [2] [nM] | apparent KD of MS2 coat protein [3] [nM] | apparent KD of MS2 coat protein [4] [nM] |
| --- | --- | --- | --- | --- | --- | --- |
| CGUCUGUCGGAAGGAUAUGUAGGGUGUCUUUUCCUCAGUACGAAGUACAUGAGGAUCACCCAUGUACAGAAGGUCCACAAUUAA [Essosoedso] (Eterna round: R96, puzzle: Exclusion NG 2) | 109 | 67.9 | 75.3 | – | – | – |
| CAAUUCAGAGGAUAUGCGCAUAGAUAAGACUUUUUUUCUUAACAUGAGGAUCACCCAUGUAGAAGGCUGUAACC [Ex2 #63] (Eterna round: R97, puzzle: Exclusion 2) | 19.8 | – | 18.2 | – | – | – |
| AGUUCGCAGAGAGGAUAUAUAGGGUUACGGCCUAUAGAAGGUUCACGUUAGCCGCAACAUGAGGAUCACCCAUGUGCUCCGCGA [Eternabot solution 35] (Eterna round: R96, puzzle: Exclusion NG 1) | 27.5 | 20.9 | 29.6 | – | – | – |
| AGGUGUAGAGGAUAUCUCUUCUCUCACAUGAGGAUCACCCAUGUCCUGGGUACCUGGGAGAGAGAAGGCUACACCA [Omei Ex5 D12] (Eterna round: R97, puzzle: Exclusion 5) | 1060 | – | 2460 | – | – | – |
| UGACAGUGAGGAUAUUAUCUGAGGGACAUGAGGAUCACCCAUGUGCACUCACGGGCCCAGUAAGAAGGCACGAGCU [EX5 B.23] (Eterna round: R97, puzzle: Exclusion 5) | 18.1 | – | 18.8 | – | – | – |
| AAACUGCAUGUGAGGAUAUGCACCGACUAAACCGGGCAGAAGGCACAUGAGGAUCACCCAUGUCAUCCUAUUGC [Beederte] (puzzle: Brourd's mod of Exclusion 4) | – | – | – | 7.99 | – | – |
| GGUAGAGUGGCAGGAUAUCCGUCUGUUUCAGUCGGAGAAGGGCCACAGUCACUGGGUCCAAAUAUGGGUGACCAUGUAUCUACC [pwkr exNG1 F6.4] (Eterna round: R96, puzzle: Exclusion NG 1) | 22 | 28.4 | 34.8 | – | – | – |
| CCCUCACAUGAGGAUCACCCAUGUUAGGAUAUGGGAGGUACCUGCGUGAGCGCACCACCCAGAAGGGACCAGGC [Eternabot (L2) Solution 4] (Eterna round: R97, puzzle: Exclusion 1) | 130 | – | 159 | – | – | – |
| CCGGCGGUAGGAUAUACAAUUGUAAAAGGCAGGUGGUGUCAACAUGAGGAUCACCCAUGUAGAAGGACCUUAAA [EX2 C.26] (Eterna round: R97, puzzle: Exclusion 2) | 38.4 | – | 22.4 | – | – | – |
| GUACAUUUAGGAUAUACGGCAGCCAAUGCAAGGGUUCUAUAACAUGAGGAUCACCCAUGUAGAAGGAGAGGGCG [Eternabot (L2) Solution 21] (Eterna round: R97, puzzle: Exclusion 2) | 70.8 | – | 55.2 | – | – | – |
| GGUUGGCGAGGAUAUACAUGAGGAUCACCCAUGUGGUCCUGAAAAAAAAAAAACCUUUGUAGAAGGCGCGGGUC [salish99_ex3_r4_035] (Eterna round: R97, puzzle: Exclusion 3) | 256 | – | 150 | – | – | – |
| CCCAGUUAGUGAGGAUAUCUUACAUGAGGAUCACCCAUGUAAUAAAUGAGGAUUUCGGGUGUCUAAGAGAAGGCACGGAUAGGC [Ostracism 25 - Jieux - Exclusion NG 2] (Eterna round: R96, puzzle: Exclusion NG 2) | 27.1 | 16.7 | 27 | – | – | – |
| AGCAUGCUAGGAUAUACGGGACAUUAGGGUUCGUUGUAUGGACAUGAGGAUCACCCAUGUAGAAGGAGCGUGCA [Mat - Exclusion 2 - Mod of Hyphema - D94] (puzzle: Exclusion 2) | – | – | – | 23.5 | – | – |
| AGUACUAACACGAAAGUGUUAGUACAAUAAGCUUGUGGAACAUGAGGAUCACCCAUGUCCUCAUAAGCUCGUCUUAG [Mat - Sensor v3 - Turn-off var 2 - D26] (puzzle: Sensor v3, turn-off variant 2) | – | – | – | 62.3 | 15.9 | 13 |
| GCGCCAUCGUGAGAUGGCGUAUAAACAUGAGGAUCACCCAUGUAGGAUAUCGAUUGCUUUGCAGUCGAGAAGGGCAUUAUAAGU [JL ENG3 3.75] (Eterna round: R96, puzzle: Exclusion NG 3) | 29.2 | 19 | 28.4 | – | – | – |
| GAAAAGGUAGAGGAUAUUUCAGAUCAAAGCUGCAAAGAAGGCUGCACAUGAGGAUCACCCAUGUGGUCUUAAAA [Mod of Quesina 8 - Jieux - Exclusion 6] (Eterna round: R97, puzzle: Exclusion 6) | 62.3 | – | 20.9 | – | – | – |
| CUGAUGUCAGGAUAUCAGAAAAGGUGCGAGGACGCACCAAAUGAGAAGGGACAUGAGGAUCACCCAUGUAAAAC [Inbeenen] (puzzle: Exclusion 4) | – | – | – | 19.2 | – | – |
| GUGGUACAUGAGGAUCACCCAUGUUAGGAUAUCGCGUGAGGUUUUACUUCCGCACACGCGAGAAGGGACGUCUU (puzzle: Exclusion 1) | – | – | – | 41.4 | – | – |

| Sequence | apparent KD of MS2 coat protein (input ligand: FMN 200 uM) [nM] | apparent KD of MS2 coat protein [1] [nM] | apparent KD of MS2 coat protein (input ligand: none) [nM] | apparent KD of MS2 coat protein [2] [nM] | apparent KD of MS2 coat protein [3] [nM] | apparent KD of MS2 coat protein [4] [nM] |
| --- | --- | --- | --- | --- | --- | --- |
| ACCAGCAUACGGAGAUCCAACAUGAGGAUCACCCAUGUCUGGAAAGCUUUUUGCUUGUCUUAUCCUCCUCUGUGUGU [Design #5] (Eterna round: R97, puzzle: Sensor, turn-off variant 1) | 30.2 | – | 32.2 | – | – | – |
| GACCCAAGUGUUAGGAUAUCCAGUCGUGGGACCAGGGAGAAGGAACAUGAGGAUCACCCAUGUAAAAUAGAAAC [Anti] (puzzle: Brourd's mod of Exclusion 4) | – | – | – | 22.3 | 137 | 22.3 |
| AGUCAGUCAGGAUAUCAAAUCCGUGGACCUUACGAUGCGGCUGAGAAGGGACAUGAGGAUCACCCAUGUUGGGU [Eternabot (L2) Solution 27] (Eterna round: R97, puzzle: Exclusion 4) | 60.8 | – | 66.5 | – | – | – |
| AUAUUUAGCUUUUUGUGAAACAUGAGGAUCACCCAUGUCCUCAUAACUGGACAUUUAAGUCUAGAAGCUCGUCUUAU [Last end dangle 3] (Eterna round: R97, puzzle: Sensor, turn-off variant 1) | 475 | – | 553 | – | – | – |
| CGGGAGGGACAAGCUUUUUGCACGUCUGUUAUUGAUGCUACAUGAGGAUCACCCAUGUUUAGGGUGUGUGAGGAUGG [JR_SV3TOV2_Sub052] (puzzle: Sensor v3, turn-off variant 2) | – | – | – | 239 | 437 | 571 |
| AUAUAGCGAGGAUAUACAUGAGGAUCACCCAUGUGGUAGUAGAUACGGUAGAGAUAGUGUAGAAGGCGCUAUGA [EX3 #9] (Eterna round: R97, puzzle: Exclusion 3) | 226 | – | 233 | – | – | – |
| AAAUAAUAGAUAAAAUAAAACAUGAGGAUCACCCAUGUAGGCAGAUGAGGGUGAAACAAGCUUUUUGCUCGUCUUAU (puzzle: Sensor v3, turn-off variant 1) | – | – | – | 477 | 63.9 | 75.1 |
| ACUGGAGCAGGAUAUACAUUCGUGCUUCGGCACGUAAGAUCACAUGAGGAUCACCCAUGUAGAAGGGCUCCAGU [E2/5-D1] (Eterna round: R97, puzzle: Exclusion 2) | 970 | – | 122 | – | – | – |
| UUUUCUUUUGUGAGGAUAUACUUGUUUUUUUUUUUGUAGAAGGCACAUGAGGAUCACCCAUGUUUUCUUUUCUG [JR_BME4_Sub026] (puzzle: Brourd's mod of Exclusion 4) | – | – | – | 20.6 | – | – |
| GUGGCACAUGAGGAUCACCCAUGUCAGGAUAUCGCGUGGUUUUUUUCGGCCGCGCGCGCGAGAAGGGACGUCUU (puzzle: Exclusion 1) | – | – | – | 27.2 | – | – |
| GGGAAAGAGGUAAGGAUAUCCUCCUCGAAAGAGGAGGAGAAGGUACAUGAGGAUCACCCAUGUAAGAAGAAGAG [AK-MS2ROC-r4-Bmoexclusion4-13] (Eterna round: R97, puzzle: Brourd's mod of Exclusion 4) | 25 | – | 18.6 | – | – | – |
| AGUAUGCGAGGAUAUACAUGAGGAUCACCCAUGUGAGAGAUAAAAGUGAGAAAGACAAGUAGAAGGCGCGUACA [JL Lego Mod 23] (Eterna round: R96, puzzle: Exclusion 3) | 413 | 41.9 | 81.1 | – | – | – |
| AGAUAGUUAGGAUAUACAUGAGGAUCACCCAUGUAGAAAAGUGGCUAAUGAGACUCCGGUAGAAGGAACAAAAU [Isanqurama] (puzzle: Exclusion 3) | – | – | – | 20 | 41.7 | 27.7 |
| UCAGGUCGGUAGGAUAUCGACGGGAAAAGCCCACGAGAAGGACUGACAUGAGGAUCACCCAUGUGAGCGUAACC [EX6 B.1] (Eterna round: R97, puzzle: Exclusion 6) | 37.9 | – | 101 | – | – | – |
| CAGUCCGUUUGAGGAUAUCUCUGGAUCGCCAUGAGAGAAGGCAAACAUGAGGAUCACCCAUGUGGUACCGACUCAACGUCGACA [Eternabot solution 10] (Eterna round: R96, puzzle: Exclusion NG 1) | 20.7 | 11.6 | 16 | – | – | – |
| UUAGUGUGAGGAUAUGGUAAAGAUAAGAUGAUGAAAGAACUCCAGAAGGCACAUGAGGAUCACCCAUGUAGAUU [Mat - Exclusion 4 - Mod of JL - D25] (puzzle: Exclusion 4) | – | – | – | 24.2 | 53.5 | 24.2 |
| CAAACACUGGUCCAAGCACACAUGAGGAUCACCCAUGUCGCCACAUAGGCGCCGGGAAUUAAGCUUCCGUUCGUCUG [Eternabot (L2) Solution 14] (Eterna round: R97, puzzle: Sensor, turn-off variant 1) | 113 | – | 150 | – | – | – |
